Where two headings read alike, the source gives them in different places.
B1: R444+W450: PTP HSCF double mutant with R444 and W450 mutated to alanine (protein)
chain: MSRHTDLVRSFLEQLEARDYREGAILAREFSDIKARSVAWKSEGVCSTKAGSRLGNTNKNRYKDVVAYDETRVILSLLQEEGHGDYINANFIRGIDGSQAYIATQGPLPHTLLDFWRLVWEFGVKVILMACQETENGRRKCERYWAREQEPLKAGPFCITLTKETTLNADITLRTLQVTFQKEFRSVHQLQYMSWPDHGVPSSSDHILTMVEEARCLQGLGPGPLCVHCSAGCGRTGVLCAVDYVRQLLLTQTIPPNFSLFQVVLEMRKQRPAAVQTEEQYRFLYHTVAQLFSRTLQDTSPHYQNLKENCAPICKEAFSLRTSSALPATSRPPGGVLRSISVPAPPTLPMADTYAVVQKRGASAGTGPGPRAPTSTDTPIYSQVAPRAQRPVAHTEDAQGTTALRRVPADQNSSGPDAYEEVTDGAQTGGLGFNLRIGRPKGPADPPAEATRV
modifications: left off: small tags and cut ends
notes: PTP HSCF double mutant with R444 and W450 mutated to alanine
B2: PXXP-PEST peptide (PTP PEST 761-780) (peptide)
peptide: GFGNRCGKPKGPRDPPSEWT
notes: Synthetic, FMOC chemistry; also called proline rich peptide derived from the C-terminal homology region of PTP PEST
B3: PXXP-HSCF peptide (PTP HSCF 432-451) (peptide)
peptide: GFNLRIGRPKGPRDPPAEWT
notes: Synthetic, FMOC chemistry; also called proline rich peptide derived from the C-terminal homology region of PTP HSCF
B4: PXXP-PEP peptide (PTP PEP 782-800) (peptide)
peptide: GFGNRFSKPKGPRNPPSAW
notes: Synthetic, FMOC chemistry; also called proline rich peptide derived from the C-terminal homology region of PTP PEP
B5: deletion of the C-terminal 20 amino acid homology domain of PTP HSCF: PTP HSCF deletion mutant missing the C-terminal homology domain (protein, UniProt Q99952 1-440, looked up, fragment)
chain: MSRSLDSARSFLERLEARGGREGAVLAGEFSDIQACSAAWKADGVCSTVAGSRPENVRKNRYKDVLPYDQTRVILSLLQEEGHSDYINGNFIRGVDGSLAYIATQGPLPHTLLDFWRLVWEFGVKVILMACREIENGRKRCERYWAQEQEPLQTGLFCITLIKEKWLNEDIMLRTLKVTFQKESRSVYQLQYMSWPDRGVPSSPDHMLAMVEEARRLQGSGPEPLCVHCSAGCGRTGVLCTVDYVRQLLLTQMIPPDFSLFDVVLKMRKQRPAAVQTEEQYRFLYHTVAQMFCSTLQNASPHYQNIKENCAPLYDDALFLRTPQALLAIPRPPGGVLRSISVPGSPGHAMADTYAVVQKRGAPAGAGSGTQTGTGTGTGARSAEEAPLYSKVTPRAQRPGAHAEDARGTLPGRVPADQSPAGSGAYEDVAGGAQTGGLGF

Columns and labels:
[1] = tested on: PST PIP - PTP HSCF association; experiment: Coprecipitation of PST PIP and PTP HSCF from co-transfected COS cells; assay type: cell-based
Protocol: COS-7 cells were transfected by electroporation. Briefly, 1.5×10^6 COS-7 cells were mixed with 24 μg total DNA in PBS and electroporated at 960 μF, […] (Bio-Rad™ Gene Pulsar™). Following electroporation, cells were seeded in 10 cm dishes and incubated for 3 days. 10-cm dishes of transfected COS cells were washed twice with ice-cold PBS, and lysed in 1 ml of M-RIPA (50 mM Tris 7.4, 1% NP40, 0.25% DOC, 150 mM NaCl, 1 mM sodium ortho-vanadate, 1 mM NaF plus Complete™ Protease Inhibitors (Boehringer Mannheim)). Lysates were incubated for 15 minutes with 100 μl UltraLink Immobilized Protein A/G™ (Pierce) at 4° C., followed by centrifugation for 5 minutes. Supernatants were collected and stored at −70° C. or directly immunoprecipitated. 5 μg of M2 or 12CA5 was added to 500 μl of lysate and incubated overnight at 4° C. Ultralink Protein A/G™ was added and incubation continued for 2 hours at 4° C. The immune complexes were washed 3 times with M-RIPA. The proteins were subjected to SDS-PAGE and transferred to nitrocellulose in 1X Transfer Buffer™ (Novex). Immunoblots were blocked overnight at 4° C. in 3% milk/PBS. To detect Flag-tagged PIP, blots were incubated with 10 μg/ml Bio-M2 (Biotinylated anti-FLAG monoclonal Ab, KODAK) followed by incubation in 10 μg/ml streptavidin-HRP (UBI). To detect HA-tagged PTPhscf, blots were incubated in anti-(HA)-peroxidase (Boehringer Mannheim) as per manufacturer's instructions. To detect phosphotyrosine, blots were incubated in HRP-conjugated 4G10 (anti-phosphotyrosine monoclonal, UBI) as per manufacture's instructions.
In vitro binding analyses between various PTP HSCF and PST PIP constructs were performed as previously described (Spencer et al, (1997), supra). Briefly, plasmids were transcribed and translated in vitro using the TnT Rabbit Reticulocyte Lysate System (Promega). Samples were diluted in 50 mM HEPES, pH 7.2, 1% triton X-100, 10% glycerol, 100 mM NaCl, and 2 μg/ml each of leupeptin, pepstatin, aprotinin and PMSF (lysis buffer). Samples were than reacted with GST fusion proteins at various concentrations, and the bound proteins were centrifuged using glutathione-sepharose beads and analyzed on SDS polyacrylamide gels. C-terminally-derived peptide inhibition studies were performed by incubating the GST fusion protein binding reactions in the presence of 10 μg/ml of the indicated peptides. Peptides were produced by FMOC-protected amino acids as previously described (Spencer et al, (1997), supra). In vivo interactions between various forms of PTP HSCF and PST PIP were also performed as previously described (Spencer et al, (1997), supra). Briefly, COS cells were transfected with various constructs, and after 48 hours, lysates were prepared and immunoprecipitated with antibodies to either the FLAG epitope contained at the C-terminus of PST PIP or an HA epitope contained at the N-terminus of PTP HSCF. The resultant blots were probed with anti-FLAG to detect PST PIP, anti-HA to detect PTP HSCF or anti-phosphotyrosine to detect levels of this modified amino acid in each protein.

[2] = biological target: T1, PSTPIP (Mus musculus, UniProt P97814); experiment: In vitro GST pull-down binding of PTP HSCF forms to GST PSTPIP; design: species or system murine; conditions: 1 or 10 μg/ml GST PST PIP
T1 construct: containing the full-length cDNA for PSTPIP (amino acids 2-415) was subcloned into pGEX4T-2; made in house; host or cells: E. coli DH5-alpha
T1 sequence (P97814 2-415): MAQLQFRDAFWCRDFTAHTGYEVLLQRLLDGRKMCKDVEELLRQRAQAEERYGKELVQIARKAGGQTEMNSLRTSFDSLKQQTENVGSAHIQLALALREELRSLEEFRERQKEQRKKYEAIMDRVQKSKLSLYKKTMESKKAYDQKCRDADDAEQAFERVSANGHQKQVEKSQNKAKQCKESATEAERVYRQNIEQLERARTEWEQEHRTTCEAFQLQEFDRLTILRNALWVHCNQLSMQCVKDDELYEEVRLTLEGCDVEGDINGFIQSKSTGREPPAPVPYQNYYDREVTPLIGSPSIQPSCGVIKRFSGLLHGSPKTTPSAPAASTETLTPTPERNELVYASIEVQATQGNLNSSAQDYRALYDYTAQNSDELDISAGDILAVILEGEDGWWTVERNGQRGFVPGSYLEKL
Protocol: The binding was carried out according to the method of Wong and Johnson (Wong et al., J. Biol. Chem. 271(35):20981-20984 (1996)). Briefly, 1 μg of plasmid with either the PSTPIP protein or PTP HSCF under the control of the Sp6 promoter was in vitro transcribed/translated using the Promega™ TnT Rabbit Reticulocyte™ system. Samples were diluted in 50 mM HEPES, pH 7.2, 1% triton X 100, 10% glycerol, 100 mM NaCl, 5 mM EDTA and 2 μg/ml each of leupeptin, pepstatin, aprotinin, and PMSF. […] This was reacted for 1 hour at 4° C. and then the resin washed 6 times in HEPES/Triton binding buffer before SDS gel electrophoresis. The peptides were synthesized on an automated Milligen 9050 Peptide Synthesizer using standard solid phase chemistry with FMOC protected amino acids on a p-alkoxybenzyl alcohol resin. Dried peptides were re-suspended in the HEPES/Triton Binding buffer at a concentration of 10 mg/ml. Peptide inhibition was performed by adding the peptide first to the in vitro translation product and then the GST-fusion followed by the GSH-Sepharose. […]
In vitro binding analyses between various PTP HSCF and PST PIP constructs were performed as previously described (Spencer et al, (1997), supra). […] Samples were than reacted with GST fusion proteins at various concentrations, and the bound proteins were centrifuged using glutathione-sepharose beads and analyzed on SDS polyacrylamide gels. […]

[3] = biological target: T2, full-length PSTPIP tagged with the FLAG epitope at the C-terminus (murine, UniProt P97814 1-415); experiment: peptide competition of the GST-PST-rich+CTH PTP HSCF pulldown of in vitro translated PSTPIP
T2 construct: In vitro transcribed/translated in rabbit reticulocyte lysate, or expressed in COS cells
T2 sequence: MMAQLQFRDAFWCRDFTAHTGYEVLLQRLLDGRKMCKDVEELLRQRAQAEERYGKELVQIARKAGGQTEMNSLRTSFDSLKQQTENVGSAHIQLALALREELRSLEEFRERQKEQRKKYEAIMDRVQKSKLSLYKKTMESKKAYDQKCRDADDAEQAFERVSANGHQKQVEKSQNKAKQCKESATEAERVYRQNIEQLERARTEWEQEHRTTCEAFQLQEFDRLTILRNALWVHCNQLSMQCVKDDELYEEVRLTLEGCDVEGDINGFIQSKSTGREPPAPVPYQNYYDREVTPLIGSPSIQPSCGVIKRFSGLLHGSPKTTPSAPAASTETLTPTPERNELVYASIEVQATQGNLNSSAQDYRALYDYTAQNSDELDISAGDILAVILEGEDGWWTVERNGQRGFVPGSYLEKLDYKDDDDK
Protocol: This was reacted for 1 hour at 4° C. and then the resin washed 6 times in HEPES/Triton binding buffer before SDS gel electrophoresis. The peptides were synthesized on an automated Milligen 9050 Peptide Synthesizer using standard solid phase chemistry with FMOC protected amino acids on a p-alkoxybenzyl alcohol resin. Dried peptides were re-suspended in the HEPES/Triton Binding buffer at a concentration of 10 mg/ml. Peptide inhibition was performed by adding the peptide first to the in vitro translation product and then the GST-fusion followed by the GSH-Sepharose. The binding/washing steps were as previously described. The peptides synthesized and the PTPs they were derived from were:
The region of PTP HSCF which interacts with PSTPIP was identified by producing deletion mutants of the enzyme missing either the 20 amino acid C-terminal domain which is highly conserved in all of the PEST PTPs (Yang et al. (1993) supra, Matthews et al., (1992) supra, Cheng et al., (1996) supra, Huang et al., (1996) supra, Aoki et al., (1996) Dosil et al., (1996) supra and Kim et al., (1996) supra) or both this domain as well as the longer proline, serine and threonine rich region C-terminal to the catalytic domain (FIG. 4A). FIG. 4B-C reveal that deletion of the C-terminal 20 amino acid homology domain of PTP HSCF completely abolished the interaction between PTP HSCF and PSTPIP. Because this region is conserved in all PEST PTPs, it is possible that both PTP PEST (Yang et al., (1993) supra) as well as PTP PEP (Matthews et al., (1992) supra) also interact with PSTPIP. In order to examine this possibility, as well as to examine if the 20 amino acid C-terminal region is sufficient for this interaction, 20 residue long peptides derived from the homologous C-terminal domain of three PEST PTPs were used to compete with the interaction between PTP HSCF and PSTPIP (FIG. 4D). In this form of the assay, a GST fusion derived from the PST-rich and C-terminal homology regions of the phosphatase was used to precipitate in vitro translated PSTPIP in the presence of varying amounts of peptides. […]

Row | Molecule | in vivo association (coprecipitation) of PST PIP and PTP HSCF [1] | in vivo association (coprecipitation) of PST PIP and PTP HSCF ([1]; listed as PTP HSCF444+450) | binding of in vitro translated PTP HSCF forms to GST PSTPIP [2] | lowest peptide concentration that effectively blocks the interaction [3]
1 | B1 | as poor at interacting in vivo with PST PIP as the mutant which was missing the entire C-terminal proline rich domain | complete loss of coprecipitation | stronger inhibitory effect on binding to PST PIP | 
2 | B2 |  |  |  | ~800 nM
3 | B3 |  |  |  | ~800 nM
4 | B4 |  |  |  | ~800 nM
5 | B5 |  |  | completely abolished the interaction | 

Reference: patent publication US6887705B1, “Tyrosine phosphorylated cleavage furrow-associated proteins (PSTPIPs)” (Genentech, Inc., priority 1997, dated 2005)
